Laboratory results: a protein production outcome set (Wang et al. 2014)

Test: label from the status in PepcDB records

Row | Sequence | protein production
1 | MNKGILIVLLAGLVSACTHKEKNPLDSLPDMSAVRANLAFTCVHEADHLPPLDPEADQLFQYGRYLQKKEGPKNFNEVARYYRIAAAYGHYKANSNLQGLVSQGIADSPDAPKETIDLAAQLVNQGIPGGYYDIGHYLELGYGLKQDPEMALRYIRKAADLGNPDAQFYVAEKLAPIDNAPAIARQMWQCATDQGHGRAALTLGVDLKTDKLYPDAAKAFQQGAKSGSSTAALSLRDAFHNPSQSDQLNYLAVPHDPERSRRYGLIWKFLKDNDGRSPKVPDIDKIVPLPPAKLPPWDGTFQWEKDQAAAVPPQKPSDELIERLSKAKHLDPATGLPLAKPEQVAQMETEAAPPPARLPLGTIARTGDSCPQDGVWCVSLAKGMVADAEQSFLKGMELPSLTIYQPRRFAWMDNWMGVRQQTVPVAWKLVGYIHEA | failed
2 | MGKEFFLQHDIVIMYSILFVFIIILKMQFFTWFGMLACMFGIVFYTLNEYMTHRFLFHIKPPKNTFLLKMLRRLHYDHHVYPDDLKLLFLPVWFSIPSFTIYLLIAYGITKSVTITLSFGIGMIIMLLVYEWKHYIAHRPIRPVTKFGRWLKKQHILHHYKNEKFWFGVSNPVFDFIFGTLKDGKDVELSETARNLEKEKKTKVVR | failed
3 | MAKKTGTKEPAPKKEKKKKERRRGKGEGTIVPHASGLFMAQISLGRDPLTGKRIRPTIYDDSEVGVQKKLRKLLIKKDLGKSVKPNKTLVGEWIRIWLDIYSKPNVGIGTWDGYDLNFTNHIENSFIARKTMSGLTTDDLQVYYNMKLLNGRKDGKGGLSTRFVKAIHTVISSAFDQAVTSGHLEKNPASGVRISNKRRPKIKIWNKEQMALYLKAIKKDRLYAAFVTDSKSGLRKSELLALRWSDIDFSTGLTKIERGWVRSPKGTLYLSDLKSENSERTLVFSTDLLKVLLEHKSRQDEEKKTAGKNYIDNGLVFCREDGSYINPSTFTRRHYDLTAKAKLPRISVHALRHSISTALLESGKVDLKQIQEMLGHKDISTTGNYYTDVLERMKQKTSELIDNLIQTEETPAQASLPAAQPSASDLAEEESVEAKNVIDFATRRNEKLFIASNGQKQKNREKAQKP | failed
4 | MTITPQQLIALLPLLIVGLTVVVVMLSIAWRRNHFLNATLSVLGLNAALVSLWFVGQNGAMDVTPLIRVDGYAMLYTGLVLLASLATCTFAYPWLEGYKDNKEEFYLLVLIAALGGILLAGANHLAALFLGIELISLPLFGLVGYAFRQKRSLEASIKYTILSAAASSFLLFGMALVYANSGNLSFLALGKSLADNMLHEPLLLAGLGLMIVGLGFKLSLVPFHLWTPDVYQGAPAPVSTFLATASKIAIFGVVMRLFLYMPVGNSEAVRVVLGLIAFASIIFGNLMALSQTNIKRLLGYSSISHLGYLLVALIALQSGEMSMEAVGVYLAGYLFSSLGAFGVVSLMSSPYRGPDADSLFSYRGLFWHRPILSAVMTVMMLSLAGIPMTLGFIGKFYVLAVGVHAHLWWLVAAVVVGSAIGLYYYLRVAVSLYLSAPEQLNRDAPSNWQYSAGGIVVLISALLVLVLGIWPQPLISIVQLATPLM | failed
5 | MKEIRYLVRQRLPFRGHDESDESANRGNFLELVKYTVGQNEVISKVVLENAPKNNQMVFDEMSEPLIPETRDPVPSSFLLLDLILDYPVVWQQTVQSNVSDKEQMAVVFRFVDKHGTVKERFIGLIHVKETSSASLKCAIDSLFAKRGLSMKQLRGQGYDGANNMKGEFNWLRSLILRENSSAYYIHCFAHQLQLVVVAVAKKQFEVGDFFDMISALLNVVGASCKGKDRIREEYLKEIEEGINQGEIKTGKGLNQELSLQRPGNTRWGTHYTTLHRLAHLFSVIIKLLEFVEEEGTDSTKRRQANGLLKYFNTFDFAFYLQLMLLLLGLTNSLSVALQKKDQDILNPMSLVKSTKQQLCKLRDDGWDSLVNEVFSFCKKHDIELVIMDGEFVNPRNPRKRSNMTNFHHYQVECFYTILDMQIQEFNDRFDEVNTELLSCVASLSPIDSFHEFDQLKVLRLSEFYPQDFTHVDRRSLEHQLGLYIDNIREDERFAN | failed
